Measurements published in patent US7919262B2, “14-3-3 proteins for diagnosis of Parkinson's disease” (The UAB Research Foundation, priority 2007, dated 2011).

Tests used:
[1] = system: H4 cells; assay: α-syn aggregation assay (synT + synphilin co-transfection); assay type: cell-based; details: isoform co-transfected with synT and synphilin; 24 hours after transfection; vs empty vector
Description: H4 cells were cotransfected with either empty vector or a 14-3-3 isoform along with synT and synphilin. 24 hours after transfection, cells were fixed and stained with a monoclonal antibody against α-syn. Cells that stained for α-syn were scored as positive or negative for α-syn aggregates, with the rater blind to experimental condition. Results reflect three independent experiments with four replicates per experiment. ***p<0.001 (Bonferroni's multiple comparison test).
To evaluate this hypothesis the effect of increased 14-3-3 polypeptide expression on α-syn aggregation was evaluated. In this experiment, the model of McLean et al., in which α-syn/green fluorescent protein (GFP) fusion protein (synT) forms visible aggregates in cells when expressed with synphilin (McLean, P J et al., Neuroscience, 104:901-12, 2001) was used. This system has been used to evaluate the effect of different polypeptides on α-syn aggregation (Kiucken, J., et al, J Biol Chem, 279:4625-31, 2004). Briefly, H4 cells were co-transfected with either empty vector or a vector containing nucleic acid encoding a 14-3-3 isoform, along with synT and synphilin. Twenty-four hours after transfection, cells were fixed and stained with a monoclonal antibody against α-syn. Results are shown in FIG. 3 and reflect three independent experiments with 4 replicates per experiment. […] These are the same 14-3-3 isoforms that were decreased in α-syn transgenic mice (see FIG. 2).
Primers against each of the human 14-3-3 isoforms were designed using Primer3. […] All cells stained for α-syn were scored as positive or negative for α-syn aggregates, with the rater blind to experimental condition. • α-syn toxicity assay H4 cells were transfected with α-syn and either empty vector control or a 14-3-3 isoform using Superfect transfection reagent (Qiagen). 24 hours after transfection, toxicity was measured by the amount of adenylate kinase released into the media using the ToxiLight™ kit (Cambrex). • Creation of stable cell lines Each 14-3-3 isoform was subcloned into the mammalian expression vector mcDNA3.1/V5-His (Invitrogen). […]

[2] = system: SK-N-BE(2)-M17 (M17) cells; assay: Rotenone toxicity in stably transfected cell lines, LDH release; assay type: cell-based; details: for rotenone-induced cell death, % of that in control cells: 1 μM rotenone, LDH release; for rotenone-induced cell death, % of that in control cells / protection against rotenone toxicity (LDH release): 48 hours; for protection against rotenone toxicity (LDH release): rotenone at varying concentrations
Description: Cell lines stably-transfected with either 14-3-3θ or empty vector were treated with varying concentrations of rotenone (0-25 μM) for 24 hours (FIG. 6A), 30 hours (FIG. 6B), or 48 hours (FIG. 6C). Cell death was assayed by LDH release into the culture media. LDH release into media was normalized to total LDH release for each well. […] Rater was blind to experimental condition. n=8 for each experimental condition. *p<0.05, ***p<0.001 (Bonferroni's multiple comparison test).
M17 cell lines stably-transfected with either a 14-3-3 isoform or empty vector were treated with varying concentrations of rotenone (0-25 μM) for 48 hours. Cell death was assayed by LDH release into the culture media. LDH release into media was normalized to total LDH release for each well. […] Results reflect two to three independent experiments with at least two replicates per experiment. *p<0.05, **p<0.01, ***p<0.001 (Bonferroni's multiple comparison test).
Additional studies were performed to evaluate the effect of 14-3-3 polypeptide isoforms in mammalian cells. In these studies, cDNA clones for the 14-3-3 polypeptide β, γ, ε, η, θ, and σ isoforms were subcloned into the mammalian expression vector pcDNA 3.1/V5/His (Invitrogen). The polypeptide expressed from this vector contains the particular 14-3-3 isoform with a V5 and a His6 tag at the C-terminal end. […] SK-N-BE(2)-M17 (M17) cells, a dopaminergic-producing human neuroblastoma cell line, were transfected with each isoform or empty vector using Superfect, and stably-transfected cells were selected for in the presence of G418.
The M17 14-3-3θ clones were examined for their resistance to rotenone (0-25 μM). M17 cell lines stably transfected with either 14-3-3θ or empty vector were treated with rotenone for 24 (FIG. 6A), 30 (FIG. 6B) or 48 hours (FIG. 6C). Cell death was assayed by […] (LDH) release into the culture media using the LDH assay kit from Roche. LDH release into media was normalized to total LDH release for each well. Results reflect three independent experiments with at least two replicates per experiment.
Stable M17 cell lines overexpressing these other isoforms were treated with rotenone at varying concentrations, and then cell death was assayed at 48 hours by LDH release. […]

Row | Molecule | decrease in the number of H4 cells displaying α-syn aggregates [1] [%] | rotenone-induced cell death, % of that in control cells ([2]; stable overexpression) [%] | protection against rotenone toxicity (LDH release) ([2]; stable overexpression) | protection against rotenone at low doses ([2]; 0.04 and 0.2 μM rotenone) | protection against rotenone at higher doses ([2]; 1 and 5 μM rotenone) | resistance to rotenone toxicity compared to control cells (LDH release) ([2]; stable overexpression, rotenone 0-25 μM, 24, 30 or 48 hours)
1 | 14-3-3γ: 14-3-3 polypeptide γ isoform, overexpressed from expression vector | 40 | 55 | prominent reduction in rotenone-induced toxicity | – | – | –
2 | 14-3-3θ: 14-3-3 polypeptide θ isoform, overexpressed from V5/His-tagged pcDNA3.1 vector (or as transgene in C. elegans) (protein, UniProt P27348 1-245, looked up, V5/His tag) 14-3-3 protein theta: MEKTELIQKAKLAEQAERYDDMATCMKAVTEQGAELSNEERNLLSVAYKNVVGGRRSAWRVISSIEQKTDTSDKKLQLIKDYREKVESELRSICTTVLELLDKYLIANATNPESKVFYLKMKGDYFRYLAEVACGDDRKQTIDNSQGAYQEAFDISKKEMQPTHPIRLGLALNFSVFYYEILNNPELACTLAKTAFDEAIAELDTLNEDSYKDSTLIMQLLRDNLTLWTSDSAGEECDAAEGAEN | 40 | 45 | – | Mild protection | more prominent protection | more resistant to rotenone toxicity
3 | 14-3-3ζ: 14-3-3 polypeptide ζ isoform, overexpressed from expression vector (protein, UniProt P63104 1-245, looked up) 14-3-3 protein zeta/delta: MDKNELVQKAKLAEQAERYDDMAACMKSVTEQGAELSNEERNLLSVAYKNVVGARRSSWRVVSSIEQKTEGAEKKQQMAREYREKIETELRDICNDVLSLLEKFLIPNASQAESKVFYLKMKGDYYRYLAEVAAGDDKKGIVDQSQQAYQEAFEISKKEMQPTHPIRLGLALNFSVFYYEILNSPEKACSLAKTAFDEAIAELDTLSEESYKDSTLIMQLLRDNLTLWTSDTQGDEAEAGEGGEN | – | 78 | some protection | – | – | –
4 | 14-3-3ε: 14-3-3 polypeptide ε isoform, overexpressed from expression vector (protein, UniProt P62258 1-255, looked up) 14-3-3 protein epsilon: MDDREDLVYQAKLAEQAERYDEMVESMKKVAGMDVELTVEERNLLSVAYKNVIGARRASWRIISSIEQKEENKGGEDKLKMIREYRQMVETELKLICCDILDVLDKHLIPAANTGESKVFYYKMKGDYHRYLAEFATGNDRKEAAENSLVAYKAASDIAMTELPPTHPIRLGLALNFSVFYYEILNSPDRACRLAKAAFDDAIAELDTLSEESYKDSTLIMQLLRDNLTLWTSDMQGDGEEQNKEALQDVEDENQ | 40 | 65 | prominent reduction in rotenone-induced toxicity | – | – | –
